In the domain aggregation screens of Martell et al. (2025):

Assay: soluble fraction after stress (log2 fold change); higher = more stays soluble; pooled small domains, quantitative proteomics
Settings: stress: 50 degC
Outline: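 Pooled custom libraries of small protein domains were each held under stress at 50°C. The read-out, high-throughput quantitative proteomics, tracked how much of each protein stayed soluble. This is reported as a base-two log fold change used to indicate aggregation propensity. Higher values mean more protein remains in solution.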

Sequence | soluble fraction (log2)
HMTMIIQLDKNITQEQRQFLVEELNRLSISPNFVSTQFTNYIVGIPKKEFDIRLIGNLPGIADIHFV | -0.183
HMGGQFVKVEVIAQIFGVTVRRVQQLTQEGVVKTTEIPGEGRRYELVPTIKTYIQYLSDKAY | -4.01
HMGKTTQEIEERSSTSTLTLTQTPKEIISVQGKKSDQSFFTNIQYTQNGKVIVPKQTGIYDTIKVVFTVSL | -1.2
HMDDKVGKVFNYVQEKILTGEWDIGDKITPEISLSKELGVSRSVVREAIKKFVALNILSRTQGGGTYVNNL | -0.515
HMWSAREQVVNSLREAILTSELKAGERLVLSDLSARLGVSVTPIREALQSLEREGLVQLMPHQEAVVV | 0.155
HMGVKHKHKGAGELLAALRTMFPNSSVSTLRKMLTQGRVVLNGEVVHRAKHELTDGDTIEVLERQRAER | 0.209
HMGELYGTDQYKDGDAQDTNIGKLLEVNIDGKWQVATTGTSRFEFAGVMDDNGHKLIMISVLPEAKTV | -0.18
HMKNDNIHMMASKINGIALEVGVLTPGMHPKNDLSEGEVGYIVTNLKTTREAKVGDTVTLAKKPAATPLPG | 0.254
HMPPITIVPNDNGVPIIRSQTPEISTAVNVELKAAGINTHTIDGTSIRVPKAQAQVAQQIVSRVNTRFT | 0.158
HMRPQIAIDAIQALSLIMRTENKEDPTYLESRRVVSDAVAKRLSLNPTDLNRAWSRAPRDHQIAVLSALTQ | -0.853
HMPIKYTHKGYTINVSRSKMNGTTFVKVVDPKGQVIQQSQDNRIQDVNQLVTTMKQYIDTLKPS | 0.189
HMRYQIAEARKLRDITQAELAEKMGTTQQTIQRYETNQVNIRMDKMIEMSEILNVSLAYLLGMSSSPEL | -0.901
HMNESADMPDVVNMSLEAAKSQLEGMGLKVKVENVEDDSVEENHVIKTSPVSGEKVKLGTTVTLTVSKGR | -0.0231
HMPLDKDTTLDEIYRRFNMEHPADYKGHSLSMGDIVVFRQDGKQTAYYVDEGADYRQVPEFFVK | 0.0346
HMSDNLSASERKALSHMEGMESVRSSEVADLLGMSQRGAQKLLNRLVDKGLASSFGANRNRRYSVE | 0.306
HMDNWLSGLAVEADRMILTQPGEVFDRLSRAFEATLIRRALASTGGRRIEAAHLLGIGRNTITRKIQDLGL | -2.49
HMGGYLIGDVAQMVGLSRDALRFYEKKGIIRADKKENGYRYYSEDDIYRLMYILYHRKMNTSLEEIGGLMS | -0.739
HMKVIAEESYRILVDAIEKLPPQMKSIMQLALEGKSNPEIAETLNISGETVHSQKKIAYRKLRVYLKD | -1.17
HMTDGLTVPMQGVVIRYKAKKGDKVAVGDAVAVLEAMKMEQNIFANKSGTIKEIYIKEGTTVTPGDVLMSI | -0.0052
HMEKINLIIEEDNNLRLDKVIAMQLQELSRTQIQDMINQGLVLVNQKKEKASYKTKLNDEIEITILD | -1.37
HMAGPVLTPEEAEVLRILADHGEMTVDNISAEGKMSAAVVLRGLGVLSAYGLVAPGGPGRWRSE | -0.253
HMTVSLTDVPFVPEILDRLERPELDVLLAILNGATNTFDLAAKTGRSRDELDEVLDRLTTLGLIER | -0.214
HMSQLLHELLAHVLKDRIISGEWPAGSRIMSEHALQERYGVSRGTVRRALAQLVQEGLLVQRKGKGTFVTR | -1.65
HMHGYLSDPAARLIRARRKTLSIRITQEGNLEIRAPLGMPKGEIEAFLKEKAQWIETHRAKVLAEYA | -2.24
HMEEDPILVAQRFLNIFRQLHIFDQQRREEFNSMILALPPEIRGTFGVLPGGSVLQEYVDELEISKGMA | -0.512

Sequence | soluble fraction (log2)
HMRTITYSITPAHAGMSVERYLKQQHGYSTRTLVKLKHYPQGLQLNGQHARTVDLLQAGDTLAVTFLD | -0.552
HMVSINETAFIQIKNSSATEIKEKITALKLDELKNVTITADIRTNKLIVVGPKATINKIQELVIELDTES | 0.281
HMKKTVTDSVELLTFLKDIFTNTSTNKLRKMLTTGRVTVNNIVIHKAKHILVQNDVVEIGDK | -1.86
HMEDTFEYPVSVNGKLRFKIELPVSMEKDEIRNIVLNDERAKKWLATGTLTNLIVVPNRIINIVIK | -0.124
HMHEYSDIEHRILDAAREVFIRKGYDSATMGDIALLAGMSRTSVNYYFRNKERLFEAIFEEII | -2.08
HMGDKVLIQTAQRLKKDLPFASIVSRFGGDEFLIFLPGISSTERVETIVKKTVFLFIAISTTLF | -0.124
HMIGAKVLVNGQLHRDSYGEGPGQTESNATRLVNYINMKGSHPYHVTTLDGGWRGWVTADSVQV | 0.223
HMHPMVEAYLADLDRALSGSDPREHAETMSAVREHLADAIAPDATAEQVRHALDELGPVEAIAAG | 0.0172
HMIMISKSFEINEDNINKRLDIFLTENLDGLSRGIVQKYISLEQITVNKESSHKDYRLKLDDFIEVKIQAH | -3.76
HMFMKNTEVALAIKGKFSNQTTITSKELVLFLSDLFPELSNKTIPWKINQLKAENLIYQTGRGIYTFN | -2.57
HMSDAGAIEPTIKEILASNPKAVEEYLAGNIKNINALIGQSMKALHGKADPQTVRNLLAKLLDEM | -0.219
HMKRNLESVLDHIEGIGPKRRKALYKHFGNLDAMRVAELEELESVEGMNKKAALAVYEFFRRNS | 0.254
HMPPNRDDEHLQALRDYYAANRRIPSLQRVASLLGFSSRSAAVKLMGRLADEGFIERTADDDAWITGKRFF | -1.19
HMVGEYTVKKGDTLWKIAGQTLGSPLRYAEIYELNKDVIEEAALGRGKKNSSNGHWIFQGTVLKIPA | -0.00974
HMKGRPTTAIITDERTNLRSGPGATNKTIAQAGAGEKLAIIDEKDGWYQVSRAGINGWVAGWVIDVAW | -0.441
HMIKLTVRQQEILDLIARSIDQTGFPPTRAEIAAELGFKSVNAAEEHLQALARKGVIEMVPGISRGIRLVQ | -0.395
HMSMDPYTVLGVNKSSTDSQIKNAYKNLAKQHHPDRGGNEAKFKEISTAYEQIKTAEKRQQYDMSQQF | 0.383
HMATPTEHQLQAQARAVVEKAERLLDRASADDREDIINLIEKITDALAAEDFTAVKAPLAELSDILFYLE | -0.418
HMSTKLLEVNIFDDSKWVNKTIMDSDIPEDILIVMIKRGDEVIVPKGSTIINKGDILVLSANNFDNLLN | -1.63
HMSAVVAPLPGLIQNILVKVGDTVHAGQHVLTMEAMKMENEIQTNRDGIIKDIKVRIGDSVNEGDTLIIL | -0.0224
HMVPPELEFLQSLMKIEDISELTAAIENNRDAVTDDFKEMLETVIENISGAPDTDPKLLERLKTIRTVLA | 0.0197
HMESGFEAVREVARHGSFANAAKALGVSGPAVSRQVKSLEERLGLVFFHRTTRMVTLTEAGQQLVDTLD | -0.00498
HMGQPAVSSRDVAEQFGKEHRNVIQSIKNLIAENSALTFMFIEDTYTAGTGKKYPMYYMNRDGFTLLA | 0.224
HMKSSTEIIYSDFLREVSNGQISEVTIQGDFVRGLFLSGSSFQTYAPKDSNLINILRDKKVRIKVHPP | -0.134
HMYKNLRAFRESLGMTQKDFAASLSIGLSTYNGYEVGAREPKSDFWIAVARKYGVTIDYLMGFSDDPHK | -1.11

Sequence | soluble fraction (log2)
HMRLPNHYGSVVKLSGKRRRPFMVRGGVYGYDDRGYPQYVIVGYTETREQGLTMLAEYNRNP | -3.22
HMEDDIRSSIRTLDQFISKNQITLSKDVKNYILQLLSNDRMVTINELEKIKIYYDSNENIDLDTVKILLN | -0.754
HMPEVAHTIDMEAVNKHWDELPEREQRILVMRFYGNLTQTEIGERLGISQMHVSRLLARALSHLKSRLLD | -3.37
HMPYSPTPGSAPARLIAHLQEHGDSVNRTAIAELLQVDRKNVHNYLARAVTHGLLLRHGGGAYSLP | 0.086
HMAEAPGSVELLAERLRPWWEIHGGEWGSKTKALRFLFGDQAPVAGSYWRALEAAIAQIESTT | -0.16
HMPLAQRFGLTVAQARVLDLLAEGRSNRQIGELLGLTEGTVKIHVSAIMKAMGVSNRAEAALMANRKR | -0.717
HMGEVPPGWSVEALAAIERDLAHHVGPVARVLVQRGARLHTTTDDLRSALANAITDDLARRRFMQP | -0.416
HMPQKSDLTMEEYNKLGLAGGSGSRKLREQVGIRLSVGYGNSKQFYNRLHTFGISLDELKTAVEEVKNG | -0.117
HMIISMKKTATKEQIAHVRELIEGMGYKAHMSVGAERVIFGAIGDERGKERLVSLEAQPGVEKVIPIL | 0.255
HMKNDKLLIFMELKGISRTQLSKSTGIPASTLGRIINGDVQKIKAVYMEAIANALDTSIHTIFDV | -1.27
HMSKHATLLEALAELTVKLKPHTQLPSERQLSEDFGVSRMTLRRAIDVMQSRGYIYTVPSKGLYVSEP | -1.59
HMAFRLPNGYGTIRRLTGNRRKPYVALVNPTQVFDDEKGTSHYKYDLLGTFAEKIDAYNAVMQYHKSPGGL | -1.35
HMVWPETEAIVTEDFIGKKRSEVQQEGVIFEFFGEGDMVIDQLPRGGVTLNESGRVWIYLGEDTF | -0.423
HMNQWQLLSEDGAILGTRVLYHPHETEQPFTRSLSGVKIPAHVQSVTIRAGDLVHGFGGREIQMQLPPIV | -0.0987
HMKGTSIELIVPQDIAGLRLDQVLAKLLPQWSRSRLQSWINEKHITVNGQTTTAKQKLWGNETIQIIPPI | -0.66
HMGEAIPVPDLKHKALTDAEHLVHELGLEIQVVDTGYVKSLPADYILGQSLAPGEKVKSGHIIYVTINSP | -0.0167
HMKKHAPSLMRQIRRELKEGKSPESLLSKAKLISDSYYRSLSFYLLIPYLSPNSKQFQEAISLAGKDID | 0.255
HMGNIYKALLGKLEKQLGFLPEGTKLPPEQELAEKFGVSKPTLRRALAELAVRGIIVKQNGIGSVVAGS | -0.142
HMTNTDALINRAAKVVEEINPDKNTGRVSIDGDLWRAKSSSGELIEQNKQVIVISIESTIVTVKI | -0.343
HMFPATAPQLKAVHAILGKQGISDELDKLARVNEWLVGLNKEPVAAISELDKHTTSGLIDHLQGELNE | 0.282
HMEPDEESVRLKEEILSRIDYWHTTMPYMGTRKLAAKLRTEGYAVGRKLVRTYMREMGIHAVYP | -0.132
HMTNSAGIERFLASGAIDGVGPAMARRIVEHFGTEALRIIESVPHRLREISGIGPKTAEKIASSYMRQ | -0.689
HMPKRYAGPDIIAIYGSDVFFRVGSGDGLMVIPVGRSMDNIEVVSVDAPRSVELMWKDGGPFTVPV | -0.165
HMSFNSQENKSVLWQFLLENNFFIGLSDKKFNKVKDIFEKNIQSISIVNDSISNKNKILIQKMMEELELL | -1.88
HMQTMTAGERREAILRELEQAQGPVSASALAKRFHVSRQAVVGDVAMLRALNSPIAATPRGYVLTR | -0.0845
